Data: patent US20040028672

System: LL-37

## Pseudomonas aeruginosa elastase
  degradation of LL-37 (SDS-PAGE) and loss of bactericidal activity against E. faecalis: LL-37 is degraded and inactivated by P. aeruginosa elastase
